# Measurements taken from the supplement of paper PMC10567573.
# ± gives the standard deviation.
# Experiment: protein stability index of a GFP-peptide fusion (GPS, HEK-293T) (PSI 1-6); higher = more stable
# [1] = treatment: DMSO, c terminus: a fixed tail appended
# [2] = treatment: MLN4924 1 uM, 8 h, c terminus: a fixed tail appended
# 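Also: 24-mer peptide tiles fused after GFP, lentivirally expressed, FACS-sorted into six equal bins by GFP/DsRed ratio, decoded by Illumina sequencing, PSI is the read-weighted mean bin number.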
Sequence,protein stability index [1],protein stability index [2],"protein stability index (treatment: DMSO, c terminus: native)","protein stability index (treatment: MLN4924 1 uM, 8 h, c terminus: native)"
AAAIIVYDITKEETFSTLKNWVKE [RAB22A],2.67 ± 1.1,1.95 ± 0.86,–,–
AALTNKHSQELTNEKEKALQAQVQ [SASS6],5.3 ± 0.086,5.46 ± 0.19,–,–
AAMFGGSFVESANSEVYLPNINKI [RHOBTB1],2.93 ± 0.23,2.93 ± 0.18,–,–
AAVKLADFGLAIEVQGDQQAWFGF [CAMK2B],2.33 ± 0.75,2.62 ± 0.77,–,–
AAYFLLSTNDKTVKLWKVSERDKR [PPP2R2B],2.51 ± 0.51,2.49 ± 0.26,–,–
ACDELFSYLIEKVKRKKNVLRLCC [PRAME],2.99 ± 0.43,2.7 ± 0.61,–,–
ADIISTVEFNHTGELLATGDKGGR [PPP2R2C],4.52 ± 0.42,4.66 ± 0.44,–,–
AEGVVLSDSPDAADSTSFDVQLGD [PPTC7],5.4 ± 0.59,5.64 ± 0.15,–,–
AEKKQELDKLRNEWASHTAALTNK [SASS6],4.38 ± 0.26,4.79 ± 0.25,–,–
AEKLCIYTDNSIRPEELLQMELLL [CCND1],2.28 ± 0.078,2.09 ± 0.36,–,–
AERLFENQLVGPESIAHIGDVMFT [APMAP],2.99 ± 0.38,3.16 ± 0.31,–,–
AERRRAGRLLLTLPLLRQTAGKVL [ESRRA],2.348 ± 0.02,2.27 ± 0.23,–,–
AEWLLAVRSIQPEEKERIGQFVFA [AASDHPPT],2.29 ± 0.15,2.13 ± 0.18,–,–
AEYPANGSGADRIYDLNIPAFVKF [NCK2],2.88 ± 0.33,2.7 ± 0.29,–,–
AFADTHSCRELLRIADKFTQHNFQ [KLHL20],2.09 ± 0.21,2.02 ± 0.28,–,–
AFASGSDDATCRLYDLRADREVAI [GNB5],3.12 ± 0.22,2.95 ± 0.11,–,–
AFRSDDTKGHPRAVSQPFRLSSSL [CDC14A],3.43 ± 0.2,3.47 ± 0.26,–,–
AFYRLADLFGWSQLIYNHITTRVN [ADD1],3.25 ± 0.54,2.88 ± 0.35,–,–
AGAARVARWRRLRLQQLRRLRGLL [FBXO33],3.13 ± 0.4,3.74 ± 0.43,–,–
AGFCMFVLSLVKKHYRLQFYMFAW [CDS1],2.05 ± 0.36,2.16 ± 0.38,–,–
AGGELGISLNMCLLGALVLLGLGV [PBXIP1],2.72 ± 1,2.7 ± 0.87,–,–
AGGFQQRQGLKYCLPLTFCIHTGL [FBXO3],2.58 ± 0.57,2.4 ± 0.24,–,–

Sequence,protein stability index [1],protein stability index [2],"protein stability index (treatment: DMSO, c terminus: native)","protein stability index (treatment: MLN4924 1 uM, 8 h, c terminus: native)"
AGPAFDSDPEISDVDEDEPGGLVG [PPFIA4],5.19 ± 0.56,5.77 ± 0.07,–,–
AGSRQALSFEVPPCNYDPEKWIQ,–,–,2.69 ± 0.59,3.35 ± 0.51
AHEIERLQMEMKEDDVSFLMKHKS [TRIM35],4.83 ± 0.24,4.67 ± 0.25,–,–
AIETAMEDLKGHVAETSGETIQGF [TPRG1],4.82 ± 0.26,5.03 ± 0.3,–,–
AIGALLVCYHYYADWFMSLGVGLL [TMEM40],3.087 ± 0.018,2.86 ± 0.62,–,–
AKDLRAPPEQGKIFIARRSLLDEL [SOAT1],3.23 ± 0.37,3.15 ± 0.33,–,–
AKPGSTEKGLPLRKTHVLLGRSHD [MFSD9],3.79 ± 0.23,3.86 ± 0.17,–,–
AKPNMIISVNGDVITIKSESTFKN [FABP4],3 ± 0.56,3.03 ± 0.66,–,–
AKVKGHRSQKHKERIRLLRQKREA [C18orf25],4.07 ± 0.57,4.38 ± 0.16,–,–
AKVNILLVENDQQLQKILSIPQSS [ACSBG2],2.21 ± 0.17,2.07 ± 0.18,–,–
ALAAATAAAAAAASAAAATAAFTT [SPAG8],3.04 ± 0.18,3.25 ± 0.18,–,–
ALGSRGWEPFDWGRLLEALCREEP [FANCE],2.61 ± 0.2,2.82 ± 0.33,–,–
ALIPYVLNPSKLMEKEINGSKVTC [ATL3],2.13 ± 0.2,2.2 ± 0.39,–,–
ALSGASQPGPSGAPAQRATRGFLR [RETREG3],4.59 ± 0.16,4.78 ± 0.073,–,–
AMELKVEDPFYWVSPGVLVLLAVL [MOG],2.8 ± 0.94,2.55 ± 0.34,–,–
AMEVNTSASEILYSAPPGDPLSTN [NFE2L1],4.45 ± 0.27,4.55 ± 0.23,–,–
AMPDPAGPDGHLPAVATLCDLFDR [ESRRA],4.27 ± 0.23,4.4 ± 0.23,–,–
ANAAKHTQDSARVNPQDGTNTLTR [EHMT1],5.13 ± 0.18,5.19 ± 0.14,–,–
ANPSIRDKEGYNSIHYAAAYGHRQ [ANKRD44],3.52 ± 0.22,3.6 ± 0.3,–,–
ANRWSFEGMDRWIKKIEEHAPGVP [RAB40A],3.33 ± 0.26,3.4 ± 0.33,–,–
APADPTAREGLAAPPRRLRSRKVS [FCHO1],5.12 ± 0.16,5.304 ± 0.013,–,–
APELVERVQSVDFMRTDPVCQKLL [KLHL14],3.85 ± 0.36,4.12 ± 0.2,–,–

Sequence,protein stability index [1],protein stability index [2],"protein stability index (treatment: DMSO, c terminus: native)","protein stability index (treatment: MLN4924 1 uM, 8 h, c terminus: native)"
APLQSVFQGQKTELNNCISMLVAG [TRIM63],2.85 ± 0.19,2.88 ± 0.22,–,–
APSIDLFSTDAFSSPPQGASPVPE [SNAP91],4.94 ± 0.34,5.04 ± 0.21,–,–
APWLSLFPPEGNMEDKEMTGPQLP [ZNF263],4.27 ± 0.27,4.75 ± 0.28,–,–
AQEKAADVQARLNRSDHGIFHSRT [FCHSD1],4.19 ± 0.072,4.37 ± 0.48,–,–
AQEVRPRRWKLQVLDLRKNSHQDF [PRAME],2.64 ± 0.37,2.96 ± 0.31,–,–
AQTFLFQGQPVVNRPLSLKDQQTF [TRADD],3.25 ± 0.26,3.39 ± 0.23,–,–
AQVFPESPESESDHEHEEADLELS [GNAS],5.44 ± 0.27,5.46 ± 0.23,–,–
ARMLFSAVEWARNIPFFPDLQITD [NR2F2],2.1 ± 0.21,2.09 ± 0.28,–,–
ARQATNLKVNFFFERIMKYERLAR [FBXO39],2.75 ± 0.82,2.41 ± 0.32,–,–
ASETFNYSAIDRVKSRGKRLALEK [PI4K2A],4.22 ± 0.044,4.4 ± 0.26,–,–
ASFHHKLHHKRLAKECMLQEENKS [CBY2],4.1 ± 0.26,4.27 ± 0.2,–,–
ASKEEKEDWLSHALSRKKSQGLAR [FBF1],4.57 ± 0.18,4.57 ± 0.32,–,–
ASTPTPDDKLFQKLAKVYSYAHGW [CPN1],2.38 ± 0.14,2.33 ± 0.26,–,–
ATALAPLQTDHYAALLGSNSESWG [SPSB2],3.31 ± 0.32,3.28 ± 0.14,–,–
ATFLVTFGNSEKPETMTCRLSNNQ [ZFYVE21],2.39 ± 0.15,2.24 ± 0.19,–,–
ATQIQQLLQDKQFELALQLAEMKD [VPS39],3.11 ± 0.32,3.41 ± 0.43,–,–
ATRVAPERLFGSAANVVSAKRNRL [ZBED1],3.83 ± 0.28,3.82 ± 0.14,–,–
AVHLCNALVCQVDNDHKEAVGKMG [ZER1],3.75 ± 0.23,3.77 ± 0.13,–,–
AVNLSVSTLPSLREEEEQVRAHAP [KCNG1],3.83 ± 0.54,4.21 ± 0.44,–,–
AWKHGNIHLSAPCIYSEVMEALDL [PCMTD2],2.71 ± 0.26,2.73 ± 0.27,–,–
CDPGTDPCPEDASTPRPPEASSSP [TLE6],5.61 ± 0.26,5.58 ± 0.28,–,–
